Experimental findings from PMC6823436, “Phase separation of Polo-like kinase 4 by autoactivation and clustering drives centriole biogenesis” (Nature Communications, 2019) are described below.

This data set deals with the molecule itself. The experiment in a line: SEC; Superdex 75 Increase 10/300 GL; 20 mM Tris-HCl pH 7.5, 500 mM NaCl, 5% glycerol, 0.5 mM TCEP; 0.5 mL/min; BSA run for comparison; dimeric state in solution. Background: SEC sorts molecules by how far they enter the pores of the column.

B1: CPB CP (581–808), cryptic polo-box of Plk4 with the CP mutations (domain or fragment, human, UniProt O00444 581-808, looked up)
chain: GYQNRTLRSITSPLVAHRLKPIRQKTKKAVVSILDSEEVCVELVKEYASQEYVKEVLQISSDGNTITIYYPNGGRGFPLADRPPSPTDNISRYSFDNLPEKYWRKYQYASRFVQLVREKEPKIEYFDRYAKCILMENSPGADFEVWFYDGVKIHKTEDFIQVIEKTGKSYTLKSESEVNSLKEEIKMYMDHANEGHRICLALESIISEEERKTRSAPFFPIIIGRKPG
notes: PDB 6N46 is the His6-tagged form of the same limits; PDB 4N9J is the wild-type apo-CPB; also called CBP CP; source: E. coli Rosetta, purified (HisTrap, SEC, TEV cleavage, HisTrap and MBPTrap, SEC)
Take B1: the binding result is given as “binds”.
